Results from US20240052027A1 (OBLIQUE THERAPEUTICS, published 2024).
Positions count from the first letter of the chain named. Bridge positions count the residues as written; N and C are the ends. * marks the point of attachment. Propargyl = C#CC*

B1: 33B6-1 (antibody, V domains shown)
VH: QSLEESGGRLVTPGTPLTLTCTASGLSLSSYDMNWVRQAPGKGLEYIGFINTRGSAYYASWATGRFTISRTSTTVDLTMTSPTTEDTATYFCARDIPDWDIGHVFDLWGPGTLVTVSS
VL: AYDMTQTPASVEVTMGGAVTIKCQASQSISNELSWYQQKPGQRPRLLIYQASALASGVPSRFKGSGYGTQFTLTISDLECADAATYYCQQGYTSNNIVNAFGGGTEVVVK
notes: Recombinant rabbit IgG with rabbit kappa light chain, made in HEK cells; Also tested as B-cell clone supernatant; also called monoclonal antibody 33B6-1
B2: 27A2-1 (antibody, V domains shown)
VH: B1 VH with S6A, T15G, P16S, Y46F, S55T, T63K, D100N
VL: B1 VL with K22N, S30T, S34A
notes: Recombinant rabbit IgG with rabbit kappa light chain, made in HEK cells; Also tested as B-cell clone supernatant; also called monoclonal antibody 27A2-1
B3: 4D11-1 (antibody, V domains shown)
VH: QEQVVESGGGLVQPEGSLTLTCTASGFDFSSNAMCWVRQAPGKGLAWIGCIGTGSSGSTYYASWARGRFTISKTSSTTVTLQMTSLTAADTATYFCPRDINAYGNDGWSFNLWGPGTLVTVSS
VL: AYDMTQTPASVEVAVGGTVTIKCQASQSIVGWLSWYQQKPGQPPKLLIYRASTLASGVPSRFKGSGSGTEFTLTISDLECDDAATYYCQQGYTFNNVDNPFGGGTEVLVK
notes: Recombinant rabbit IgG with rabbit kappa light chain, made in HEK cells; Also tested as B-cell clone supernatant; also called monoclonal antibody 4D11-1
B4: 29B5-1 (antibody, V domains shown)
VH: QSLEESGGRLVTPGTPLTLTCTVSGIDLSSVTMGWVRQAPGKGLEYIGVITTIRTTYYASWVNGRFTISQTSTTVDLKMTSLTTEDTATYFCARDGDTTNTYGYYFDIWGPGTLVTVSL
VL: AVVMTQTPASVEVAVGGTVTIKCQASQSISSYLAWYQQKPGQPPKLLIYKASTLASGVPSRFKGSGSGTQFTLTISGVQCDDAATYYCQQGYTGNNVDNIFGGGTEVVVK
notes: Recombinant rabbit IgG with rabbit kappa light chain, made in HEK cells; Also tested as B-cell clone supernatant; also called monoclonal antibody 29B5-1
B5: 2B11-1 (antibody, V domains shown)
VH: QSVGESGGRLVTPGTPLTLTCTVSGIDLSIYPVDWVRQAPGKGLEWIGIINTNGNTYYANWAKGRFTISKTSSTTVDLQVTSLTTEDTATYFCARHFDLWGQGTLVTVSS
VL: QVLTQTASPVSAAVGGTVTINCQSSQTVYNNNNLAWYQQKSGQPPKLLIYDSSKLESGVPSRFSGSGSGTQFTLTISDLECDDAATYYCAGGYGGWIAAFGGGTEVVVK
notes: Recombinant rabbit IgG with rabbit kappa light chain, made in HEK cells; Also tested as B-cell clone supernatant; also called monoclonal antibody 2B11-1
B6: 54F1-1 (antibody, V domains shown)
VH: B5 VH with I30V, N51S, Q79K, V80M
VL: B5 VL with S53F, G94A
notes: Recombinant rabbit IgG with rabbit kappa light chain, made in HEK cells; Also tested as B-cell clone supernatant; also called monoclonal antibody 54F1-1
B7: 24C6-1 (antibody, V domains shown)
VH: QSVEESGGRLVTPGTPLTLTCTVSGFSLSTYAMAWVRQAPGKGLEWIGIIGQSSKTYYAIWAKGRFTISRTSTTVDLKIPSPTTEDTATYFCARGSTYVLDMWGPGTLVTVSL
VL: AVVMTQTASPVSAAVGGTVTIKCQASQSISSYLAWYQQKPGQPPKLLIADASKLVSGVPSRFKGSGSGTEFTLTISDLECADAATYYCQNYYGSSDFGTFGGGTEVVVE
notes: Recombinant rabbit IgG with rabbit kappa light chain, made in HEK cells; Also tested as B-cell clone supernatant; also called monoclonal antibody 24C6-1
B8: 9E4-1 (antibody, V domains shown)
VH: B4 VH with T51V, T52P, I53R, R54G, T55A, S60N, N63K, Q70K, T99G, T101I
VL: AYDMTQTPASVSEPVGGTVTIKCQASQSISTALAWYQQKSGQRPKLLIYDAWKLASGVSSRFKGSGSGTQFTLTISGVQCDDAATYYCQQGYSGNNVDNVFGGGTEVVVS
notes: Recombinant rabbit IgG with rabbit kappa light chain, made in HEK cells; Also tested as B-cell clone supernatant; also called monoclonal antibody 9E4-1
B9: 23B9-1 (antibody, V domains shown)
VH: QSVEESGGRPVTPGTPLTLTCTVSGIDLSRYAVDWVRQAPGKGLEWIGIILTSGKISYASWVKGRFTISKTSTTVDLKMTSLTTEDTATYFCARHFDLWGQGTLVTVSS
VL: B5 VL with T27S, S41P, S64K, T75I, G94S, W96V, A99S
notes: Recombinant rabbit IgG with rabbit kappa light chain, made in HEK cells; Also tested as B-cell clone supernatant; also called monoclonal antibody 23B9-1
B10: 75C9-1 (antibody, V domains shown)
VH: QEQVVESGGGLVQPEGSLTLTCTASGFSFNNNAMCWVRQAPGKGLEWIGCIGTAASGNSYYASWAKGRFTISRTSSTTVTLQMTSLTAADTATYFCPRDINAYGNDGWSFKLWGPGTLVTVSS
VL: AFELTQTPSSVEAAVGGTVTIKCQASQSINGWLSWYQQKPGQPPKLLIYRASPVASGVPSRFKGSGSGTEYTLTISGVQCDDAATYYCQQGYTFNNVDDPFGGGTEVVVK
notes: Recombinant rabbit IgG with rabbit kappa light chain, made in HEK cells; Also tested as B-cell clone supernatant; also called monoclonal antibody 75C9-1
B11: 69H7-1 (antibody, V domains shown)
VH: B1 VH with S30R, A56T, S60T, A62T
VL: B1 VL with E12S, V13G, T14A, M15V, A18T, K22N, A53T
notes: Recombinant rabbit IgG with rabbit kappa light chain, made in HEK cells; Also tested as B-cell clone supernatant; also called monoclonal antibody 69H7-1

Target: T1, OTV16 peptide (SEQ ID NO:3) (human, disulfide 1-18; SMILES …)
T1 construct: cyclic; Coated on ELISA plates
T1 peptide: Propargyl-CYRPVDGLPPFKMEKTGC-NH2
Assay: peptide ELISA of purified recombinant monoclonal antibody
Experimental: (§1) FIG. 6: Peptide ELISA of purified recombinant monoclonal antibodies. Monoclonal antibodies were tested for binding to OTV16 peptide, NHP-OTV16 peptide, mOTV16 peptide and rOTV16 peptide. Non-specific binding was determined using wells coated with bovine serum albumin (BSA). Serum from immunized rabbit (known to contain OTV16-binding antibody) was used as a positive binding control. Serial dilutions of antibody were incubated for 1 hr in ELISA plates coated with peptide or BSA. Plates were washed, and bound antibody was detected using anti-rabbit IgG conjugated to […] with absorbance measured at 405 nm.
(§2) 96-well plates suitable for ELISA were coated with peptide (1 μg/mL) in PBS and incubated 1 h at 37° C. The peptides used to coat the plates were OTV16 (SEQ ID NO:3; described above), NHP-OTV16 (SEQ ID NO:5; described above), rOTV16 (SEQ ID NO:7; described above) and mOTV16 (SEQ ID NO:9; described below). Plates were washed with PBS containing 0.05% Tween and incubated 1 h at 37° C. in the presence of blocking buffer (PBS, 0.5% BSA, 0.05% Tween 20, pH 7.4). A serial dilution of recombinant antibodies of the invention (23B9-1 or 24C6-1 or 27A2-1 or 29B5-1 or 2B₁₁-1 or 33B6-1 or 4D11-1 or 54F1-1 or 69H7-1 or 75C9-1 or 9E4-1) was added in blocking buffer and incubated for 1 h at RT. Plates were washed with PBS containing 0.05% Tween and a secondary antibody (anti-rabbit IgG conjugated to Alkaline Phosphatase (DAKO)), was added and incubated for 1 h at RT. Plates were washed with PBS containing 0.05% Tween followed by addition of 1 mg/mL pNPP (p-nitrophenyl […] phosphate) in pNPP buffer. Absorbance was measured at 405 nm. Serum from rabbit immunized with OTV16 peptide was used as a positive control. Non-specific binding, e.g. to plastic, was determined using wells coated with bovine serum albumin (BSA) protein.

Binding result, binds:
B1
B2
B3
B4
B5
B6
B7

Target: T2, mOTV16 peptide (SEQ ID NO:9) (mouse, disulfide 1-19)
T2 construct: cyclic
T2 peptide: Propargyl-CYRPVEGLPPYKLNNTVGC-NH2
Assay: as above
Experimental: as §1, §2

Binding result, binds:
B8
B9
B5
B6

Target: T1, OTV16 peptide (SEQ ID NO:3)
Assay: peptide ELISA of B-cell clone supernatant
Experimental: (§3) FIG. 5: Peptide ELISA of B-cell clone supernatants. Antibody in supernatant from B-cell clones was tested for binding to OTV16 peptide, NHP-OTV16 peptide and rOTV16 peptide respectively. B-cell supernatants were incubated for 1 hr in 96-well plates coated with the respective peptide. Plates were washed and bound antibody was detected using anti-rabbit IgG conjugated to horse radish peroxidase with absorbance measured at 450 nm. Serum from immunized rabbit was used as a positive binding control. B-cell culture medium (antibody-free) was used as a negative control. N=1.
(§4) 96-well plates suitable for ELISA were coated with respective peptide (1 μg/mL) in PBS and incubated 1 h at 37° C. or overnight at 4° C. The peptides used to coat the plates were OTV16 (SEQ ID NO:3), NHP-OTV16 (SEQ ID NO:5), and rOTV16 (SEQ ID NO:7) (described below). Plates were washed with wash buffer and incubated 1 h at 37° C. in the presence of blocking buffer (PBS, 0.5% BSA, 0.05% Tween 20, pH 7.4). B-cell supernatants were added and incubated for 1 h at 37° C. Plates were washed with wash buffer and Mouse Anti-Rabbit IgG Fc Antibody conjugated to horseradish peroxidase (Genscript, cat #A01856) was added and incubated for 30 minutes, 37° C. Plates were washed with wash buffer followed by addition of substrate solution, 100 μl/well and incubated for 13-20 minutes at RT. Reaction was stopped by adding 100 μl/well of stop solution. Absorbance was measured at 450 nm. Serum from immunized rabbit known to contain antibody that binds to OTV16 peptide was used as a positive control. B-cell culture medium (antibody-free) was used as a negative control.

Binding result, binds:
B10
B11
B8
B9

Target: T3, NHP-OTV16 peptide (SEQ ID NO:5) (Macaca mulatta, disulfide 1-18)
T3 construct: cyclic
T3 peptide: Propargyl-CYRPVDGLPPFKMEKTEC-NH2
Assay: peptide ELISA of B-cell clone supernatant
Experimental: as §3, §4

Binding result, binds:
B10
B1
B2
B11
B3
B8
B4
B9
B5
B6
B7

Target: T4, rOTV16 peptide (SEQ ID NO:7) (rat, disulfide 1-18)
T4 construct: cyclic
T4 peptide: Propargyl-CYRPVEGLPPYKLKNTGC-NH2
Assay: peptide ELISA of B-cell clone supernatant
Experimental: as §3, §4

Binding result, binds:
B5
B6
